Measurements as given in the MegaScale stability set (Tsuboyama et al. 2023).

B1: EHEE_rd3_0053 (parent)
chain: TYTFKVDNKDQAKKAAKWAKKLGLSFQIEKHGDTFKITVQ

Variants of: B1
Test: folding stability dG (cDNA display proteolysis); higher = more stable
Conditions: PBS, room temperature

Folding stability dG [kcal/mol], by site and new letter:
K5: N 2.79; H 3.07; W 3.77; G 1.89; F 3.77; A 2.54; E 2.93; I 3.47; P 1.7; M 3.24; Q 2.9; L 3.2; R 2.22; D 2.34; T 3.28; Y 3.89; S 2.96; V 3.31
K9: P 2.31; F 2.74; D 1.91; E 2.65; S 2.14; M 2.74; Q 2.26; I 2.87; V 2.57; G 1.9; A 2.62; W 3.2; N 1.9; H 2.25; T 2.02; Y 2.86; R 2.46; L 2.9
D10: C 2.72; E 2.73; A 2.83
Y2: C 3.58; Q 1.17; G 0.704; L 2.25; A 1.23; S 1.18; W 2.7; R 1.97; H 1.95; K 1.59; F 2.57; N 0.999; E 0.685; M 2.08; T 1.42; P 0.617; D 0.593; V 2.01; I 2.27
F4: H 0.581; P 0.467; R 0.333; Y 1.69; V 1.2; Q 0.162; D -0.075; W 2.38; C 3.42; E 0.316; I 1.79; K 0.404; T 0.349; L 1.38; N -0.163; M 1.23; G 0.271; A 0.455; S 0.126
T3: S 2.34; P 0.945; R 1.6; D 1.34; V 2.49; W 2.67; M 1.99; A 1.79; N 1.43; L 1.39; I 2.43; K 1.46; C 2.98; E 2.15; Y 2.27; G 0.986; Q 1.95; F 2.2; H 2.1
T1: I 2.51; L 2.21; K 2.46; Y 2.64; V 2.43; Q 2.34; N 2.17; H 2.3; F 2.42; W 2.67; S 2.62; P 2.15; M 2.37; R 2.45; E 2.25; G 2.42
N8: F 1.46; W 1.24; P 0.466; A 1.27; Q 1.47; I 1.16; E 1.16; S 2.56; G 2.35; K 1.62; M 1.15; L 1.43; H 1.73; T 2.78; Y 1.27; V 0.955; R 1.86; D 2.02
V6: R 0.551; H 0.343; P 0.243; L 2.32; E 0.257; I 1.89; S 1.03; F 2.32; M 1.68; A 1.62; Q 0.045; K 0.315; T 2.1; Y 1.92; W 1.28; N -0.311; G 0.437; D -0.058
D7: S 2.66; L 2.4; G 2.45; Q 2.61; R 2.68; V 2.33; C 3.29; T 2.47; A 2.71; W 2.66; E 2.37; I 2.27; P 2.27; F 2.83; H 2.58; N 2.62; K 2.77; Y 2.78; M 2.51
